Measured values reported in article PMC11201429.

Target: thrombin (human alpha-thrombin not specified) (human, UniProt P00734;P00734 328-363;364-622)
Assay: QCM-D; aptamer immobilised on streptavidin/biotin-PE/POPC bilayer; thrombin 1-25 ug/mL, shift 3 to 81 Hz; LOD 29 nM (not a Kd); PBS with CaCl2 and MgCl2 (concentrations not given), 0.1% BSA, 37 C; aptamer 0.5 uM loaded, heated to 95 C for 5 min and cooled to RT

Binder: CGCCTAGGTTGGGTAGGGTGGTGGCG (structured_DNA, 5'-biotin) [NU172 thrombin aptamer]
- binding result: binds
